# Results from patent publication US20250171562A1.
# Target: mixture of three Der p 2 specific recombinant human IgE clones H10, H12, P4E (human) (UniProt P01854)
# Assay: RBL-SX38 IgE displacement, FACS
# mixture of three Der p 2 specific recombinant human IgE clones H10, H12, P4E (human), sequence (P01854 other isoform, or with tags, fused parts or gaps): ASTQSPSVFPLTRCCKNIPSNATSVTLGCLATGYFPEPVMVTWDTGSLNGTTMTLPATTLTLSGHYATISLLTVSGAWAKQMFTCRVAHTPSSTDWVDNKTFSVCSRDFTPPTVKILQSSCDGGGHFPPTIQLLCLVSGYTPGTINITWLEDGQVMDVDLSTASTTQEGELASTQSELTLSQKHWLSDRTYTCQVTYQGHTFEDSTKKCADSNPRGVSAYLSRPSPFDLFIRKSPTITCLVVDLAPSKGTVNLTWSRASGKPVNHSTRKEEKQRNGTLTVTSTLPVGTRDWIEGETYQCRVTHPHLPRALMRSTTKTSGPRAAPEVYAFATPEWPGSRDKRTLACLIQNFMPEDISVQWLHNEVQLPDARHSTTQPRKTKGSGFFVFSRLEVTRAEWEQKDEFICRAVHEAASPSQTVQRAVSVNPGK
EC50 [nM],Max effect/effect 1 µM [%],Binder
1.6,97,NIgG4D1A1(RS) (Fc fusion) chain 1: DVQLQESGGGLVQAGGSLRLSCAASGLTFSRCDMGWFRQAPGKEREFVARISANGASTHYADFVKGRFTISRDNAKNTVYLQMNYLKPEDTAVYICAAARVPVTWQLYDYWGQGTQVTVSRSGPPCPPCPAPEFLGGPSVFLFPPKPKDTLMISRTPEVTCVVVDVSQEDPEVQFNWYVDGVEVHNAKTKPREEQFNSTYRVVSVLTVLHQDWLNGKEYKCKVSNKGLPSSIEKTISKAKGQPREPQVYTLPPCQEEMTKNQVSLWCLVKGFYPSDIAVEWESNGQPENNYKTTPPVLDSDGSFFLYSRLTVDKSRWQEGNVFSCSVMHEALHNHYTQKSLSLSLGK chain 2: EVQLLESGGGLVQPGGSLRLSCAASGFTFGNYDMAWVRQAPGKRPEWVSSIDTGGDITHYADSVKGRFTISRDNAKNTLYLQMNSLRPEDTAVYWCATDEEYALGPNEFDYYGQGTLVTVSSRSGPPCPPCPAPEFLGGPSVFLFPPKPKDTLMISRTPEVTCVVVDVSQEDPEVQFNWYVDGVEVHNAKTKPREEQFNSTYRVVSVLTVLHQDWLNGKEYKCKVSNKGLPSSIEKTISKAKGQPREPQVCTLPPSQEEMTKNQVSLSCAVKGFYPSDIAVEWESNGQPENNYKTTPPVLDSDGSFFLVSRLTVDKSRWQEGNVFSCSVMHEALHNHYTQKSLSLSLGK
0.3,98,NIgG4B2A1(G4S)2 (Fc fusion) chain 1: QVQLVESGGGLVQAGGSLRLSCAVFGSTFSNNVADWYRQAPGKQRELVARISASGATREYGDSVKGRFTISRDDAKNTMYLQMNNLKPEDTAVYRCHKIEWEDLSRKDYWGQGTQVTVSGGGGSGGGGSGPPCPPCPAPEFLGGPSVFLFPPKPKDTLMISRTPEVTCVVVDVSQEDPEVQFNWYVDGVEVHNAKTKPREEQFNSTYRVVSVLTVLHQDWLNGKEYKCKVSNKGLPSSIEKTISKAKGQPREPQVYTLPPCQEEMTKNQVSLWCLVKGFYPSDIAVEWESNGQPENNYKTTPPVLDSDGSFFLYSRLTVDKSRWQEGNVFSCSVMHEALHNHYTQKSLSLSLGK chain 2: EVQLLESGGGLVQPGGSLRLSCAASGFTFGNYDMAWVRQAPGKRPEWVSSIDTGGDITHYADSVKGRFTISRDNAKNTLYLQMNSLRPEDTAVYWCATDEEYALGPNEFDYYGQGTLVTVSSGGGGSGGGGSGPPCPPCPAPEFLGGPSVFLFPPKPKDTLMISRTPEVTCVVVDVSQEDPEVQFNWYVDGVEVHNAKTKPREEQFNSTYRVVSVLTVLHQDWLNGKEYKCKVSNKGLPSSIEKTISKAKGQPREPQVCTLPPSQEEMTKNQVSLSCAVKGFYPSDIAVEWESNGQPENNYKTTPPVLDSDGSFFLVSRLTVDKSRWQEGNVFSCSVMHEALHNHYTQKSLSLSLGK
8.8,93,CIgG4B2A1(G4S)1 (Fc fusion) chain 1: GPPCPPCPAPEFLGGPSVFLFPPKPKDTLMISRTPEVTCVVVDVSQEDPEVQFNWYVDGVEVHNAKTKPREEQFNSTYRVVSVLTVLHQDWLNGKEYKCKVSNKGLPSSIEKTISKAKGQPREPQVYTLPPCQEEMTKNQVSLWCLVKGFYPSDIAVEWESNGQPENNYKTTPPVLDSDGSFFLYSRLTVDKSRWQEGNVFSCSVMHEALHNHYTQKSLSLSLGKGGGGSQVQLVESGGGLVQAGGSLRLSCAVFGSTFSNNVADWYRQAPGKQRELVARISASGATREYGDSVKGRFTISRDDAKNTMYLQMNNLKPEDTAVYRCHKIEWEDLSRKDYWGQGTQVTVS chain 2: GPPCPPCPAPEFLGGPSVFLFPPKPKDTLMISRTPEVTCVVVDVSQEDPEVQFNWYVDGVEVHNAKTKPREEQFNSTYRVVSVLTVLHQDWLNGKEYKCKVSNKGLPSSIEKTISKAKGQPREPQVCTLPPSQEEMTKNQVSLSCAVKGFYPSDIAVEWESNGQPENNYKTTPPVLDSDGSFFLVSRLTVDKSRWQEGNVFSCSVMHEALHNHYTQKSLSLSLGKGGGGSEVQLLESGGGLVQPGGSLRLSCAASGFTFGNYDMAWVRQAPGKRPEWVSSIDTGGDITHYADSVKGRFTISRDNAKNTLYLQMNSLRPEDTAVYWCATDEEYALGPNEFDYYGQGTLVTVSS
273,70,CIgG4B2A1(RS) (Fc fusion) chain 1: GPPCPPCPAPEFLGGPSVFLFPPKPKDTLMISRTPEVTCVVVDVSQEDPEVQFNWYVDGVEVHNAKTKPREEQFNSTYRVVSVLTVLHQDWLNGKEYKCKVSNKGLPSSIEKTISKAKGQPREPQVYTLPPCQEEMTKNQVSLWCLVKGFYPSDIAVEWESNGQPENNYKTTPPVLDSDGSFFLYSRLTVDKSRWQEGNVFSCSVMHEALHNHYTQKSLSLSLGKRSQVQLVESGGGLVQAGGSLRLSCAVFGSTFSNNVADWYRQAPGKQRELVARISASGATREYGDSVKGRFTISRDDAKNTMYLQMNNLKPEDTAVYRCHKIEWEDLSRKDYWGQGTQVTVS chain 2: GPPCPPCPAPEFLGGPSVFLFPPKPKDTLMISRTPEVTCVVVDVSQEDPEVQFNWYVDGVEVHNAKTKPREEQFNSTYRVVSVLTVLHQDWLNGKEYKCKVSNKGLPSSIEKTISKAKGQPREPQVCTLPPSQEEMTKNQVSLSCAVKGFYPSDIAVEWESNGQPENNYKTTPPVLDSDGSFFLVSRLTVDKSRWQEGNVFSCSVMHEALHNHYTQKSLSLSLGKRSEVQLLESGGGLVQPGGSLRLSCAASGFTFGNYDMAWVRQAPGKRPEWVSSIDTGGDITHYADSVKGRFTISRDNAKNTLYLQMNSLRPEDTAVYWCATDEEYALGPNEFDYYGQGTLVTVSS
1.6,99,CIgG4B2A1(G4S)2 (Fc fusion) chain 1: GPPCPPCPAPEFLGGPSVFLFPPKPKDTLMISRTPEVTCVVVDVSQEDPEVQFNWYVDGVEVHNAKTKPREEQFNSTYRVVSVLTVLHQDWLNGKEYKCKVSNKGLPSSIEKTISKAKGQPREPQVYTLPPCQEEMTKNQVSLWCLVKGFYPSDIAVEWESNGQPENNYKTTPPVLDSDGSFFLYSRLTVDKSRWQEGNVFSCSVMHEALHNHYTQKSLSLSLGKGGGGSGGGGSQVQLVESGGGLVQAGGSLRLSCAVFGSTFSNNVADWYRQAPGKQRELVARISASGATREYGDSVKGRFTISRDDAKNTMYLQMNNLKPEDTAVYRCHKIEWEDLSRKDYWGQGTQVTVS chain 2: GPPCPPCPAPEFLGGPSVFLFPPKPKDTLMISRTPEVTCVVVDVSQEDPEVQFNWYVDGVEVHNAKTKPREEQFNSTYRVVSVLTVLHQDWLNGKEYKCKVSNKGLPSSIEKTISKAKGQPREPQVCTLPPSQEEMTKNQVSLSCAVKGFYPSDIAVEWESNGQPENNYKTTPPVLDSDGSFFLVSRLTVDKSRWQEGNVFSCSVMHEALHNHYTQKSLSLSLGKGGGGSGGGGSEVQLLESGGGLVQPGGSLRLSCAASGFTFGNYDMAWVRQAPGKRPEWVSSIDTGGDITHYADSVKGRFTISRDNAKNTLYLQMNSLRPEDTAVYWCATDEEYALGPNEFDYYGQGTLVTVSS
0.5,98,NIgG4B2A1(G4S)3 (Fc fusion) chain 1: QVQLVESGGGLVQAGGSLRLSCAVFGSTFSNNVADWYRQAPGKQRELVARISASGATREYGDSVKGRFTISRDDAKNTMYLQMNNLKPEDTAVYRCHKIEWEDLSRKDYWGQGTQVTVSGGGGSGGGGSGGGGSGPPCPPCPAPEFLGGPSVFLFPPKPKDTLMISRTPEVTCVVVDVSQEDPEVQFNWYVDGVEVHNAKTKPREEQFNSTYRVVSVLTVLHQDWLNGKEYKCKVSNKGLPSSIEKTISKAKGQPREPQVYTLPPCQEEMTKNQVSLWCLVKGFYPSDIAVEWESNGQPENNYKTTPPVLDSDGSFFLYSRLTVDKSRWQEGNVFSCSVMHEALHNHYTQKSLSLSLGK chain 2: EVQLLESGGGLVQPGGSLRLSCAASGFTFGNYDMAWVRQAPGKRPEWVSSIDTGGDITHYADSVKGRFTISRDNAKNTLYLQMNSLRPEDTAVYWCATDEEYALGPNEFDYYGQGTLVTVSSGGGGSGGGGSGGGGSGPPCPPCPAPEFLGGPSVFLFPPKPKDTLMISRTPEVTCVVVDVSQEDPEVQFNWYVDGVEVHNAKTKPREEQFNSTYRVVSVLTVLHQDWLNGKEYKCKVSNKGLPSSIEKTISKAKGQPREPQVCTLPPSQEEMTKNQVSLSCAVKGFYPSDIAVEWESNGQPENNYKTTPPVLDSDGSFFLVSRLTVDKSRWQEGNVFSCSVMHEALHNHYTQKSLSLSLGK
1.5,98,CIgG4B2A1(G4S)3 (Fc fusion) chain 1: GPPCPPCPAPEFLGGPSVFLFPPKPKDTLMISRTPEVTCVVVDVSQEDPEVQFNWYVDGVEVHNAKTKPREEQFNSTYRVVSVLTVLHQDWLNGKEYKCKVSNKGLPSSIEKTISKAKGQPREPQVYTLPPCQEEMTKNQVSLWCLVKGFYPSDIAVEWESNGQPENNYKTTPPVLDSDGSFFLYSRLTVDKSRWQEGNVFSCSVMHEALHNHYTQKSLSLSLGKGGGGSGGGGSGGGGSQVQLVESGGGLVQAGGSLRLSCAVFGSTFSNNVADWYRQAPGKQRELVARISASGATREYGDSVKGRFTISRDDAKNTMYLQMNNLKPEDTAVYRCHKIEWEDLSRKDYWGQGTQVTVS chain 2: GPPCPPCPAPEFLGGPSVFLFPPKPKDTLMISRTPEVTCVVVDVSQEDPEVQFNWYVDGVEVHNAKTKPREEQFNSTYRVVSVLTVLHQDWLNGKEYKCKVSNKGLPSSIEKTISKAKGQPREPQVCTLPPSQEEMTKNQVSLSCAVKGFYPSDIAVEWESNGQPENNYKTTPPVLDSDGSFFLVSRLTVDKSRWQEGNVFSCSVMHEALHNHYTQKSLSLSLGKGGGGSGGGGSGGGGSEVQLLESGGGLVQPGGSLRLSCAASGFTFGNYDMAWVRQAPGKRPEWVSSIDTGGDITHYADSVKGRFTISRDNAKNTLYLQMNSLRPEDTAVYWCATDEEYALGPNEFDYYGQGTLVTVSS
1.4,99,NIgG4D1A1(G4S)1 (Fc fusion) chain 1: DVQLQESGGGLVQAGGSLRLSCAASGLTFSRCDMGWFRQAPGKEREFVARISANGASTHYADFVKGRFTISRDNAKNTVYLQMNYLKPEDTAVYICAAARVPVTWQLYDYWGQGTQVTVSGGGGSGPPCPPCPAPEFLGGPSVFLFPPKPKDTLMISRTPEVTCVVVDVSQEDPEVQFNWYVDGVEVHNAKTKPREEQFNSTYRVVSVLTVLHQDWLNGKEYKCKVSNKGLPSSIEKTISKAKGQPREPQVYTLPPCQEEMTKNQVSLWCLVKGFYPSDIAVEWESNGQPENNYKTTPPVLDSDGSFFLYSRLTVDKSRWQEGNVFSCSVMHEALHNHYTQKSLSLSLGK chain 2: EVQLLESGGGLVQPGGSLRLSCAASGFTFGNYDMAWVRQAPGKRPEWVSSIDTGGDITHYADSVKGRFTISRDNAKNTLYLQMNSLRPEDTAVYWCATDEEYALGPNEFDYYGQGTLVTVSSGGGGSGPPCPPCPAPEFLGGPSVFLFPPKPKDTLMISRTPEVTCVVVDVSQEDPEVQFNWYVDGVEVHNAKTKPREEQFNSTYRVVSVLTVLHQDWLNGKEYKCKVSNKGLPSSIEKTISKAKGQPREPQVCTLPPSQEEMTKNQVSLSCAVKGFYPSDIAVEWESNGQPENNYKTTPPVLDSDGSFFLVSRLTVDKSRWQEGNVFSCSVMHEALHNHYTQKSLSLSLGK
